How the values were obtained:
[1] = biological target: CD4 (UniProt P01730); test: Biacore CD4 binding, lot comparison (reference material)
[2] = biological target: CD4 (UniProt P01730); test: Biacore CD4 binding, lot comparison (clinical trial material)

| Substance | CD4 binding (Biacore) % [1] | CD4 binding (Biacore) % [2] |
| --- | --- | --- |
| 1086.C gp120 | 100% | 87% |
| TV1.C gp120 | 91% | 98% |

Reference: patent publication US20180360949A1
